Laboratory results taken from article PMC9437119.

Target: T1, Flag-tagged human Fis1 (WT) (human), Q9Y3D6
T1 chain: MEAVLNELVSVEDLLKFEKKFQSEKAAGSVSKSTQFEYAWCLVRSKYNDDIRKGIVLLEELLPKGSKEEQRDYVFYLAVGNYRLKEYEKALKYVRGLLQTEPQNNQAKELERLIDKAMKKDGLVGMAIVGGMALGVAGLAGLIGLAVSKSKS
Experiment: SDS-resistant oligomers on SDS-PAGE immunoblot of the immunoprecipitate; anti-myc immunoprecipitate of the Mid51/Fis1 complex from HeLa lysate heated 20 min at 55°C, 4-20% Tris-Glycine SDS-PAGE; SDS-resistant complexes detected with anti-myc (Mid51 species) or anti-Flag (Fis1 species); species normalized to monomer
Conditions: remark: other sources report otherwise

B1: Flag-tagged human Fis1 (WT), Q9Y3D6 1-152 (natural protein)
chain: T1 chain
Binder B1 has a stoichiometry N of 4.
